Experimental data published in publication PMC10397247.
Read-outs that look alike come from different tables or passages of the source.

Key:
P8A-bA = molecular target: T1, P8A-bA; assay: two-hybrid library CCNG1;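 also: natural log of median RNA to DNA barcode read ratio; higher means stronger binding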
T1 chain: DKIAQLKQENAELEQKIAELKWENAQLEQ

P7A-bA = molecular target: T2, P7A-bA; assay: two-hybrid library CCNG1;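 also: natural log of median RNA to DNA barcode read ratio; higher means stronger binding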
T2 chain: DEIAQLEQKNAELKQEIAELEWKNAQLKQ

P9A-bA = molecular target: T3, P9A-bA; assay: two-hybrid library CCNG1;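 also: natural log of median RNA to DNA barcode read ratio; higher means stronger binding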
T3 chain: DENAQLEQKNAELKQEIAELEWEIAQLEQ

P2-AA-1HAA-D = molecular target: T4, P2-AA-1HAA-D; assay: two-hybrid library CCmax;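 also: natural log of median RNA to DNA barcode read ratio; higher means stronger binding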
T4 chain: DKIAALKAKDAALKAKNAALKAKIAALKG

P2-AA-1HAA-T = molecular target: T5, P2-AA-1HAA-T; assay: two-hybrid library CCmax; details: mean of both orientations;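 also: natural log of median RNA to DNA barcode read ratio; higher means stronger binding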
T5 chain: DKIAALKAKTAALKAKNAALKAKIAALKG

P2-AA-1HAA-I = molecular target: T6, P2-AA-1HAA-I; assay: two-hybrid library CCmax; details: mean of both orientations;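 also: natural log of median RNA to DNA barcode read ratio; higher means stronger binding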
T6 chain: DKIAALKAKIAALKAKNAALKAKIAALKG

P2-AA-1HAA-V = molecular target: T7, P2-AA-1HAA-V; assay: two-hybrid library CCmax; details: mean of both orientations
T7 chain: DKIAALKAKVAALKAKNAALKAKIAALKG

P2-AA-1HAA-R = molecular target: T8, P2-AA-1HAA-R; assay: two-hybrid library CCmax; details: mean of both orientations
T8 chain: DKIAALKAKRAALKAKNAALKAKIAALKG

P2-AA-1HAA-S = molecular target: T9, P2-AA-1HAA-S; assay: two-hybrid library CCmax; details: mean of both orientations
T9 chain: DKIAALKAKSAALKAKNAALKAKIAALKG

P2-AA-1HAA-E = molecular target: T10, P2-AA-1HAA-E; assay: two-hybrid library CCmax; details: mean of both orientations
T10 chain: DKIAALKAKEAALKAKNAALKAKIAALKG

O6-bP = molecular target: T11, O6-bP; assay: two-hybrid library CCNG1
T11 chain: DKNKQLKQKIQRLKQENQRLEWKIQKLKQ

O4-bP = molecular target: T12, O4-bP; assay: two-hybrid library CCNG1
T12 chain: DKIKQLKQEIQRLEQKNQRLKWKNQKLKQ

O9-bP = molecular target: T13, O9-bP; assay: two-hybrid library CCNG1
T13 chain: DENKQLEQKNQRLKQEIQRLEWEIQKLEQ

O7-bP = molecular target: T14, O7-bP; assay: two-hybrid library CCNG1
T14 chain: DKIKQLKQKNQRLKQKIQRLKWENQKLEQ

O5-bP = molecular target: T15, O5-bP; assay: two-hybrid library CCNG1
T15 chain: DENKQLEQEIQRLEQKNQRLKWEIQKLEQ

O8-bP = molecular target: T16, O8-bP; assay: two-hybrid library CCNG1
T16 chain: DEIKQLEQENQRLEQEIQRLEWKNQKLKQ

4H2931-bH = molecular target: T17, 4H2931-bH; assay: two-hybrid library CCNG1
T17 chain: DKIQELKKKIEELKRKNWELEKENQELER

4H349-bH = molecular target: T18, 4H349-bH; assay: two-hybrid library CCNG1
T18 chain: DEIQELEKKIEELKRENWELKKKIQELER

4H56-bH = molecular target: T19, 4H56-bH; assay: two-hybrid library CCNG1
T19 chain: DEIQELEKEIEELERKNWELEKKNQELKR

4H796-bH = molecular target: T20, 4H796-bH; assay: two-hybrid library CCNG1
T20 chain: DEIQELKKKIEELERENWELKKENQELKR

O16-bN = molecular target: T21, O16-bN; assay: two-hybrid library CCNG1
T21 chain: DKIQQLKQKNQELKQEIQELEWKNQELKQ

4H3381-bH = molecular target: T22, 4H3381-bH; assay: two-hybrid library CCNG1
T22 chain: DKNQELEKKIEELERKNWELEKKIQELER

4H3364-bH = molecular target: T23, 4H3364-bH; assay: two-hybrid library CCNG1
T23 chain: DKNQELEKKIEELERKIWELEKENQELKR

4H4073-bA = molecular target: T24, 4H4073-bA; assay: two-hybrid library CCNG1
T24 chain: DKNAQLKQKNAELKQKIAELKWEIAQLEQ

4H949-bH = molecular target: T25, 4H949-bH; assay: two-hybrid library CCNG1
T25 chain: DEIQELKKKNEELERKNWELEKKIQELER

4H932-bH = molecular target: T26, 4H932-bH; assay: two-hybrid library CCNG1
T26 chain: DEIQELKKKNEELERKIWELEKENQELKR

4H3297-bH = molecular target: T27, 4H3297-bH; assay: two-hybrid library CCNG1
T27 chain: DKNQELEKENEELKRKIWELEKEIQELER

4H730-bH = molecular target: T28, 4H730-bH; assay: two-hybrid library CCNG1
T28 chain: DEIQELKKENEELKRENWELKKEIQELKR

4H2859-bH = molecular target: T29, 4H2859-bH; assay: two-hybrid library CCNG1
T29 chain: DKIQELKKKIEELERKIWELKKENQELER

4H3041-bH = molecular target: T30, 4H3041-bH; assay: two-hybrid library CCNG1
T30 chain: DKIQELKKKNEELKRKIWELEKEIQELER

4H40-bH = molecular target: T31, 4H40-bH; assay: two-hybrid library CCNG1
T31 chain: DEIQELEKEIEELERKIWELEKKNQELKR

4H2760-bH = molecular target: T32, 4H2760-bH; assay: two-hybrid library CCNG1
T32 chain: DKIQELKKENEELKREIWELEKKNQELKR

P2-AA = molecular target: T33, P2-AA; assay: two-hybrid library CCmax; details: mean of both orientations
T33 chain: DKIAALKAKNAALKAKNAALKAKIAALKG

4H3974-bA = molecular target: T34, 4H3974-bA; assay: two-hybrid library CCNG1
T34 chain: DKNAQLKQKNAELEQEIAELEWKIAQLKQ

4H584-bA = molecular target: T35, 4H584-bA; assay: two-hybrid library CCNG1
T35 chain: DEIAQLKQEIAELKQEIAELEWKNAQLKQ

4H3631-bA = molecular target: T36, 4H3631-bA; assay: two-hybrid library CCNG1
T36 chain: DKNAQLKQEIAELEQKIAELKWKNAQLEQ

4H3414-bA = molecular target: T37, 4H3414-bA; assay: two-hybrid library CCNG1
T37 chain: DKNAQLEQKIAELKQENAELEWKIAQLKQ

4H906-bA = molecular target: T38, 4H906-bA; assay: two-hybrid library CCNG1
T38 chain: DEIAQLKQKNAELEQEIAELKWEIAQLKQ

4H3638-bA = molecular target: T39, 4H3638-bA; assay: two-hybrid library CCNG1
T39 chain: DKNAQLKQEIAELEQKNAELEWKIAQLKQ

4H3817-bA = molecular target: T40, 4H3817-bA; assay: two-hybrid library CCNG1
T40 chain: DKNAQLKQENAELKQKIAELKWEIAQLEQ

4H570-bA = molecular target: T41, 4H570-bA; assay: two-hybrid library CCNG1
T41 chain: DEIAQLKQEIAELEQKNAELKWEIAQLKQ

4H619-bA = molecular target: T42, 4H619-bA; assay: two-hybrid library CCNG1
T42 chain: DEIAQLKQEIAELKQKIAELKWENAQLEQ

4H850-bA = molecular target: T43, 4H850-bA; assay: two-hybrid library CCNG1
T43 chain: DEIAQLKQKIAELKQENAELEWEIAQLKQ

4H3010-bA = molecular target: T44, 4H3010-bA; assay: two-hybrid library CCNG1
T44 chain: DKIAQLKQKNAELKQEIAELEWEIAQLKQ

4H264-bH = molecular target: T45, 4H264-bH; assay: two-hybrid library CCNG1
T45 chain: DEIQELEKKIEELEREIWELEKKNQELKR

O8-bA = molecular target: T46, O8-bA; assay: two-hybrid library CCNG1
T46 chain: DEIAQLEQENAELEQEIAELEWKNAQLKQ

B1: P6A-bA (peptide)
chain: DKNAQLKQEIAELEQENAELEWKIAQLKQ
For B1, the interaction score (P8A-bA) was 0.137, the interaction score (P7A-bA) was 0.285 and the interaction score (P9A-bA) was -1.98.

B2: P1-AA-1HAA-H (peptide)
chain: DEIAALEAEHAALEAENAALEAEIAALEG
B2 was tested, and the interaction score (P2-AA-1HAA-D) was 1.5, the interaction score (P2-AA-1HAA-T) was 2.13 and the interaction score (P2-AA-1HAA-I) was 1.98. For the same binder, the interaction score (P2-AA-1HAA-V) was 1.33, the interaction score (P2-AA-1HAA-R) was 1.34 and the interaction score (P2-AA-1HAA-S) was 1.91. It also gave an interaction score (P2-AA-1HAA-E) of 0.913.

B3: O4-bP (peptide)
chain: DKIKQLKQEIQRLEQKNQRLKWKNQKLKQ
For B3, the interaction score (O6-bP) was -0.676, the interaction score (O4-bP) was -0.959 and the interaction score (O9-bP) was -0.425. The interaction score (O7-bP) was -0.866, the interaction score (O5-bP) was -0.998 and the interaction score (O8-bP) was -2.5.

B4: 4H2760-bH (peptide)
chain: DKIQELKKENEELKREIWELEKKNQELKR
Binder B4 has an interaction score (4H2931-bH) of -0.365, an interaction score (4H349-bH) of 0.171 and an interaction score (4H56-bH) of -1.85. It also gave an interaction score (4H796-bH) of 0.41, an interaction score (O16-bN) of 0.693 and an interaction score (4H3381-bH) of 0.571. For the same binder, the interaction score (4H3364-bH) was 0.427, the interaction score (4H4073-bA) was -0.277 and the interaction score (4H949-bH) was -0.189. It also gave an interaction score (4H932-bH) of -1.86, an interaction score (4H3297-bH) of 1.12 and an interaction score (4H730-bH) of -0.92. The interaction score (4H2859-bH) was 0.64, the interaction score (4H3041-bH) was 0.73 and the interaction score (4H40-bH) was -1.45. For the same binder, the interaction score (4H2760-bH) was 1.46.

B5: P7A-bA (peptide)
chain: DEIAQLEQKNAELKQEIAELEWKNAQLKQ
Work on B5 yielded an interaction score (P8A-bA) of 1.79, an interaction score (P7A-bA) of -0.889 and an interaction score (P9A-bA) of -0.632.

B6: P1-AA-1HAA-S (peptide)
chain: DEIAALEAESAALEAENAALEAEIAALEG
With B6 the interaction score (P2-AA-1HAA-D; mean of both orientations) was 1.28, the interaction score (P2-AA-1HAA-T) was 1.87 and the interaction score (P2-AA) was 2.06. It also gave an interaction score (P2-AA-1HAA-I) of 2.17, an interaction score (P2-AA-1HAA-V) of 2 and an interaction score (P2-AA-1HAA-R) of 2.17. It also gave an interaction score (P2-AA-1HAA-S) of 1.18 and an interaction score (P2-AA-1HAA-E) of 1.97.

B7: P1-AA-1HAA-K (peptide)
chain: DEIAALEAEKAALEAENAALEAEIAALEG
Work on B7 yielded an interaction score (P2-AA-1HAA-D; mean of both orientations) of 0.24, an interaction score (P2-AA-1HAA-T) of 2.06 and an interaction score (P2-AA-1HAA-I) of 1.82. The interaction score (P2-AA-1HAA-V) was 2.1, the interaction score (P2-AA-1HAA-R) was 1.56 and the interaction score (P2-AA-1HAA-S) was 1.97. It also gave an interaction score (P2-AA-1HAA-E) of 0.472.

B8: 4H3414-bA (peptide)
chain: DKNAQLEQKIAELKQENAELEWKIAQLKQ
B8 showed an interaction score (4H3974-bA) of -0.77, an interaction score (4H584-bA) of -0.456 and an interaction score (4H3631-bA) of 0.00557. For the same binder, the interaction score (4H3414-bA) was 0.915, the interaction score (4H906-bA) was -0.43 and the interaction score (4H3638-bA) was 1.02. The interaction score (4H3817-bA) was 0.381, the interaction score (4H570-bA) was 0.386 and the interaction score (4H619-bA) was -1.25. For the same binder, the interaction score (4H850-bA) was -0.866.

B9: 4H264-bH (peptide)
chain: DEIQELEKKIEELEREIWELEKKNQELKR
For B9, the interaction score (4H2931-bH) was 0.678, the interaction score (4H349-bH) was 0.113 and the interaction score (4H56-bH) was -0.538. The interaction score (4H3010-bA) was 1.67, the interaction score (4H796-bH) was -0.303 and the interaction score (4H3381-bH) was 1.06. For the same binder, the interaction score (4H3364-bH) was 0.996, the interaction score (4H949-bH) was -0.764 and the interaction score (4H932-bH) was -0.203. The interaction score (4H3297-bH) was 1.11, the interaction score (4H730-bH) was 0.131 and the interaction score (4H264-bH) was 0.678. For the same binder, the interaction score (4H2859-bH) was 1.8, the interaction score (4H3041-bH) was 1.23 and the interaction score (O8-bA) was 0.091. The interaction score (4H2760-bH) was 0.562.

B10: P1-AA-1HAA-A (peptide)
chain: DEIAALEAEAAALEAENAALEAEIAALEG
B10 was tested, and the interaction score (P2-AA-1HAA-D; mean of both orientations) was 1.87, the interaction score (P2-AA-1HAA-T) was 1.64 and the interaction score (P2-AA) was 2.29. The interaction score (P2-AA-1HAA-I) was 2.26, the interaction score (P2-AA-1HAA-V) was 2.11 and the interaction score (P2-AA-1HAA-R) was 1.48. It also gave an interaction score (P2-AA-1HAA-S) of 2 and an interaction score (P2-AA-1HAA-E) of 1.86.
